B1: ADI-41415 (antibody, V domains shown)
VH: QVTLKESGPALVKPTQTLTLTCTFSGFSLSTSRTRVSWIRQPPGKALEWLARVDWDDDKFYNPVLKTRLSISKDPSKNQVVLTMTNVDPVDTATYYCVRMAHYGSGGYYVEYFQDWGQGTLVTVSS
VL: DIQLTQSPASLSASAGDRVTITCRASQNINRYLNWYQQQSGKAPKLLIYAASILQSGVPSRFSGSGSGTDFTLTITSLQPEDFAIYYCQQSYTTPKYTFGQGTKVEIK
notes: IgG1
B2: ADI-41418 (antibody, V domains shown)
VH: EVQLVESGGGLVKPGGSLRLSCAASGLSFTDAWMGWVRQAPGKGLEWVGHIKKKTDYGPTAYAAPVRGRFTVSRDDSKNTLYLQMTSLKTEDTAVYYCITERGYNFGYNDYFGVDVWGQGTLVTVSS
VL: QPGLTQPPSVSVSPGQTARITCSGDALPKKYAYWYQQKSGQAPVMIIYEDNKRPSGIPERFSGSTSGTMATLTISGAQMEDEADYYCFSTDSGDDQSGVFGGGTRLTVL
notes: IgG1
B3: ADI-41425 (antibody, V domains shown)
VH: EVQLLESGPAVVKPTQTLTLTCTVSGLSLSSPRMSVSWIRQPPGKGLEWLARIDWDGDKYYGTSLKTRLSISKDTSKNQVVLTMTNMDPVDTGTYYCAQTSIYASNAYYLARLDPWGQGMLVTVSS
VL: EIVMTQSPSLLSASVGDRVTITCRASQNIATYLNWYQQKPGKAPRLLIYAASNLQSGVPSGFSGSGSGTVFTLTISSLQPEDFATYFCQQSYETSLTFGGGTKVEIK
notes: IgG1
B4: ADI-41427 (antibody, V domains shown)
VH: QVQLVESGPGLVKPSETLSLTCTVSGGSIGGYYWSWIRQPPGKGLEWIGYMYYSGSTNYNPSLKSRVTMSVDTSKNQFSLKLTSVTAADTAVYYCARVLRFLVGGMDVWGQGTTVTVSS
VL: QSVLIQPASVSGSPGQSITISCTGTSSDVGGYNYVSWYQQHPGKAPKLIIYEVSNRPSGVSNRFSGSKSGNTASLTISGLQAEDEADYYCNSYTTIATLVFGTGTKVTVL
notes: IgG1
B5: ADI-41429 (antibody, V domains shown)
VH: QVQLVQSGAEVKKPGSSVKVSCKASGGTFSSYAISWVRQAPGQGLEWMGGIIPIFGTVNYAQKFPGRVTITADESTSTAYMELSSLRSEDTAIYYCARDSPSYTGSLLFSQYYYGMDVWGQGTTVTVSS
VL: QPVLTQPASVSGSPGQSITISCTGTSSDVGGYDYVSWYQHHPGKAPKLMIYEVSNRPSGVSNRFSGSKSGNTASLTISGLQAEDEADYYCSSFTTSSPRVFGTGTKLTVL
notes: IgG1; also called Ab 714
B6: ADI-41431 (antibody, V domains shown)
VH: QVQLVQSGAEVKKPGASVRVSCTASGYRFFTYGITWVRQAPGQGLEWMGWISAYNGNTKFAQKFQGRLTMTTDAPTSTADMELRGLRSDDTAVYYCAREEGGYHGTGSNNYWGQGTLVTVSS
VL: QSVLTQPPSVSAAPGQKVTISCSGSGSNVGGNDVSWYQQFPGTAPKLLIYDNSKRPSGIPDRFSGSKSGTSATLVITGLQTGDEADYYCGTWDSSLSVGVFGTGTKLTVL
notes: IgG1; also called Ab 715
B7: ADI-41432 (antibody, V domains shown)
VH: QVQLVQSGAEVKKPGYSVKVSCKASGGTFSTFGISWVRQAPGLGLEWMGGIIPLFGTADYSKKYQGRVTITADESTSTGYMELNSLTPEDTAVYYCARSPGHLWSRYDAFEVWGQGTTVTVSS
VL: QPVLTQPRSVSGSPGQSVTISCSGTSSDVGGYNYVSWYQQYPGKAPKLIIYDVNKRPSGVPDRFSGSKSDNTASLTISGLQADDESDYFCCSYAGSHTFEVFGTGTKVTVL
notes: IgG1
B8: ADI-41436 (antibody, V domains shown)
VH: EVQLLESGGGVVQPGRSLRLSCAASGFTFSDYAMHWVRQAPGKGLEWVALISFDGSNEYYADSVKGRFTISRDNSRNTVYLQVNTLRPDDTAVFYCARDSHLRLTTRGWGSFDYWGQGTLVTVSS
VL: NFMLTQPHSVSESPGKTVTIACTRSSGSIARNYVQWYQQRPGRSPTMVIYEDNQRPSGVPDRFSGSIDTSSNSASLTISGLKTEDEADYYCQPYDPDNLVFGGGTKLTVL
notes: IgG1; also called Ab 720
B9: ADI-41440 (antibody, V domains shown)
VH: EVQLVESGGGLVKPGGSLRLSCAVSGFTFSDYTMNWVRQAPGKGLEWVSSISGSGTYIYYGDSVKGQFTISRDNAKNSLYLQMNSLRAEDTAVYYCARELPAKTIFGVDFLGGTTAYDCWGQGTPVTVSS
VL: EIVLTQSPATLSVSPGERATLSCRASQSVSSNLAWYQQKPGQAPRLLIYSATTRATGVPARFSGSGSGTEFTLTISSLRSEDFAVYYCQQYNNGGTFGPGTKVEIK
notes: IgG1; also called Ab 724
B10: ADI-41443 (antibody, V domains shown)
VH: EVQLVESGGGVVQPGKSLRLSCAASGFTFSSYAMHWVRQAPGKGLEWVSVIWYEDSDKYYGDSVKGRFTISRDNSKNTLYLQMNSLRAEDTAVYYCARKSGGFGGLDYWGQGTLVTVSS
VL: DIVMTQSPLSLPVTPGEPASISCKSSQSLLTANGYNYLDWYVQKPGQSPHVLISLGSNRASGVPDRFSGSGSGTDFTLKISRVEAEDVGVYYCMQAIETPITFGQGTRLEIK
notes: IgG1; also called Ab 727
B11: ADI-41444 (antibody, V domains shown)
VH: EVQLVESGPRLVKPSQTLSLTCTVSGGSIGTGDYHWTWIRQSPGKGLEWIGNIYYNGRTFYNPSLKGRGSISRDASKNQFSLNLSSVSAADTAVYYCARDRAAKGFDHWGQGTLVTVSS
VL: DIQLTQSPSTLSASVGDRVTITCRASQNINGWLAWYQQKPGRVPKLLIYKASTLESGVPSRFSGSASGTEFTLTINNLLPDDFATYYCQQYNDYPYTFGQGTKVEIK
notes: IgG1
B12: ADI-41445 (antibody, V domains shown)
VH: QVQLVQSGAEVKRPGSSVKVSCKAFGGSFSNYAINWVRQAPGQGLEWMGGISPVLGTAIYAKRFQGKVTITADKFANTAYMDLSSLRFEDTAVYYCARSPPHVEFPLTKWFDPWGQGTLVTVSS
VL: EIVMTQSPGTLSLSPGERATLSCRASQSVNSGYLAWYQHKPGRAPRLLIYGASNRATGVPDRFSGSGSGTDFTLTISRLEPEDFAVYYCQQYDNSLFTFGPGTKVDIK
notes: IgG1
B13: ADI-41446 (antibody, V domains shown)
VH: EVQLLESGGGLVQPGGSLRLSCAASGFTYYSYAMNWVRQAPGKGLEWVSAISGGGDNTFYAESVKGRFTISRDNAKNTLYLQMDSLRAEDTAVYYCAKDLQGYTSLYCFDYWGQGTLVTVSS
VL: EIVMTQSPATLSLSPGERAALSCRASQSVFNYVAWYQQKPGQAPRLLIYDTSKRATGIPARFSGSGSGTDFTLTISSLEPEDFAVYYCQHRYNWPGLIFGGGTKVEIK
notes: IgG1; also called Ab 730
B14: ADI-41448 (antibody, V domains shown)
VH: TVQLVESGAEVKSPGSSVRVSCQASGGSSNSYAISWVRQAPGQGLEWMGMISPLFGTTRFSQRFQGRVTITADKSTSTAYMELSSLNSEDTALYYCARGRFDFWSGPTRFYYTMDVWGQGTMVTVSS
VL: QSVLIQPASVSGSPGQSITISCSGTSSDIGGYNYVSWYQQHPGKAPKLLISDVTDRPSGISDRFSGSKSGTSASLTISGLQADDEADYYCTSYTTSSTWVFGGGTKLTVL
notes: IgG1

target: RSV fusion glycoprotein (RSV F) on RSV-A2 virus (respiratory syncytial virus, UniProt P03420 26-574); experiment: cell-based or functional assay

Point of comparison: B6, “Neutralization IC50 (RSV subtype A)” value 2.38 µg/mL. Against it:
- B1 — higher, > 25 µg/mL
- B2 — higher, > 25 µg/mL
- B3 — higher, > 25 µg/mL
- B4 — higher, > 25 µg/mL
- B5 — higher, > 25 µg/mL
- B7 — higher, > 25 µg/mL
- B8 — higher, > 25 µg/mL
- B9 — higher, > 25 µg/mL
- B10 — higher, > 25 µg/mL
- B11 — higher, > 25 µg/mL
- B12 — higher, > 25 µg/mL
- B13 — higher, > 25 µg/mL
- B14 — higher, > 25 µg/mL

target: RSV postfusion F (postF), F deltaFP (respiratory syncytial virus, UniProt P03420 26-513); experiment: BLI, IgG on sensor, 100 nM antigen

Point of comparison: B2, Kd 0.341 nM. Against it:
- B1 — 1.9-fold higher, 0.644 nM
- B3 — within 1.5-fold, 0.496 nM
- B4 — 2.7-fold higher, 0.917 nM
- B5 — 2.9-fold higher, 1 nM
- B6 — within 1.5-fold, 0.345 nM
- B7 — within 1.5-fold, 0.286 nM
- B8 — within 1.5-fold, 0.237 nM
- B9 — 3.6-fold higher, 1.23 nM
- B10 — within 1.5-fold, 0.373 nM
- B11 — 1.6-fold higher, 0.541 nM
- B12 — 2.3-fold higher, 0.772 nM
- B13 — 2.1-fold higher, 0.722 nM
- B14 — within 1.5-fold, 0.428 nM

target: RSV prefusion F (preF), DS-Cav1 (respiratory syncytial virus, UniProt P03420 26-513); experiment: BLI, IgG on sensor, 100 nM antigen

Point of comparison: B4, Kd 2.7 nM. Against it:
- B1 — 2.5-fold lower, 1.08 nM
- B2 — 1.7-fold lower, 1.58 nM
- B3 — 2.4-fold lower, 1.14 nM
- B5 — within 1.5-fold, 3.62 nM
- B6 — 3.6-fold lower, 0.744 nM
- B7 — within 1.5-fold, 2.05 nM
- B8 — 2.5-fold lower, 1.1 nM
- B9 — within 1.5-fold, 3.18 nM
- B10 — within 1.5-fold, 2.4 nM
- B11 — within 1.5-fold, 3.01 nM
- B12 — within 1.5-fold, 3.04 nM
- B13 — within 1.5-fold, 3.6 nM
- B14 — within 1.5-fold, 2.75 nM

Reference: patent US20260258115A1 (MAPP BIOPHARMACEUTICAL, published 2026)
